Among the data in US20200087681A1 are degranulation assay, CD107a upregulation on TCR+ CAR19+ T cells after 4 hr with CD19+ Daudi, degranulation assay, CD107a upregulation on TCR- CAR19+ T cells after 4 hr with CD19+ Daudi and percent of cells with CD16 and IgG co-staining values, retold here.

The target of assay [1] is CD19 (UniProt P15391). In words: cell-based or functional assay.
Assay [2] concerns the target human serum immunoglobulin (IgG) (human). In words: flow cytometry of cFcR-transduced human T cells incubated with human serum IgG, co-stained for CD16 and IgG.

Sequence of UniProt P15391 (P15391 20-556 limits assumed): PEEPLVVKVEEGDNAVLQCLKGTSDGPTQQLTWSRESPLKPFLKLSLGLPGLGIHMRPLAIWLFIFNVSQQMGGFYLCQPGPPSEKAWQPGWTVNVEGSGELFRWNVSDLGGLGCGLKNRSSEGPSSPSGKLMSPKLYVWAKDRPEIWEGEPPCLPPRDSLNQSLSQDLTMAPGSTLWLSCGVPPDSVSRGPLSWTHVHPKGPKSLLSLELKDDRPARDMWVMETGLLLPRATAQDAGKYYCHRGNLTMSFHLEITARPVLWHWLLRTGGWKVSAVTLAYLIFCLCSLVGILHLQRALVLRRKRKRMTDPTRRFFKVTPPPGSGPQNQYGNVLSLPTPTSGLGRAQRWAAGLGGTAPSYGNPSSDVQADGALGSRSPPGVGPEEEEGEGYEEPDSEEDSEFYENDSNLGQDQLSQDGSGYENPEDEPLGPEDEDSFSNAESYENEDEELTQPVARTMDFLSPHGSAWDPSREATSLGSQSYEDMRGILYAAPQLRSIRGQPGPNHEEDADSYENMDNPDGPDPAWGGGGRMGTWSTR

In assay [1], “CD3z-41BB-CD8-CAR19scFv (4G7) chimeric antigen receptor (CAR19) (from UniProt P01732 138-206; Q07011 214-255; P20963 52-164)” yielded a degranulation assay, CD107a upregulation on TCR+ CAR19+ T cells after 4 hr with CD19+ Daudi of 53% and a degranulation assay, CD107a upregulation on TCR- CAR19+ T cells after 4 hr with CD19+ Daudi of 57%.

Take “chimeric FcR (cFcR) (from UniProt P08637 17-208; P01732 138-206; Q07011 214-255; P20963 52-164) (receptor)”: in assay [2], the percent of cells with CD16 and IgG co-staining amounted to 7.5%.
